Test results taken from patent publication US20190352387A1 (Chugai, published 2019).
Changes are numbered by the printed parent chain.

Legend:
[1] = target: T1, Recombinant cynomolgus monkey sclerostin (cynomolgus monkey, UniProt Q9BG78 24-213 (Chlorocebus aethiops entry)); test: cell-based or functional assay
T1 chain: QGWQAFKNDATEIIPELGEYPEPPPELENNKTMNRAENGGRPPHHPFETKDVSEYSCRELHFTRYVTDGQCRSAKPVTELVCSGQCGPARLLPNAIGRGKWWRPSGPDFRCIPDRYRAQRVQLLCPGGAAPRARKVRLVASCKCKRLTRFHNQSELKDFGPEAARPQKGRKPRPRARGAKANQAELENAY

[2] = target: T2, Recombinant human sclerostin (human, UniProt Q9BQB4 24-213); test: SPR; captured antibody, recombinant human SOST as analyte; response normalised by the capture level of the antibody [panel abL081]
T2 construct: Whole entry as named; Secreted recombinant protein purified from FreeStyle293-F conditioned medium; also called human-SOST; Human SOST
T2 sequence: T1 chain with Q70P, A129E, P161T, G178S

[3] = target: T2, Recombinant human sclerostin; test: SPR; captured antibody (SG1/SK1 constant regions), recombinant human SOST as analyte; response normalised by the capture level of the antibody [panel A-A-B]
[4] = target: T2, Recombinant human sclerostin; test: SPR; captured antibody, recombinant human SOST as analyte; response normalised by the capture level of the antibody [panel abL083]
[5] = target: T2, Recombinant human sclerostin; test: SPR; captured antibody (SG1/SK1 constant regions), recombinant human SOST as analyte; response normalised by the capture level of the antibody [panel mabAL]
[6] = target: T2, Recombinant human sclerostin; test: SPR; captured antibody (SG1/SK1 constant regions), recombinant human SOST as analyte; response normalised by the capture level of the antibody [panel mabBL]
[7] = target: T2, Recombinant human sclerostin; test: SPR; captured antibody (SG1/SK1 constant regions), recombinant human SOST as analyte; response normalised by the capture level of the antibody [panel A-B-B]
[8] = target: T2, Recombinant human sclerostin; test: SPR; captured antibody (SG1/SK1 constant regions), recombinant human SOST as analyte; response normalised by the capture level of the antibody [panel B-B-A]
[9] = target: T2, Recombinant human sclerostin; test: SPR; captured antibody, recombinant human SOST as analyte; response normalised by the capture level of the antibody [panel abL063]
[10] = target: T2, Recombinant human sclerostin; test: SPR; captured antibody (SG1/SK1 constant regions), recombinant human SOST as analyte; response normalised by the capture level of the antibody [panel B-A-B]
[11] = target: T3, Recombinant mouse sclerostin (mouse, UniProt Q99P68 24-211); test: cell-based or functional assay
T3 sequence: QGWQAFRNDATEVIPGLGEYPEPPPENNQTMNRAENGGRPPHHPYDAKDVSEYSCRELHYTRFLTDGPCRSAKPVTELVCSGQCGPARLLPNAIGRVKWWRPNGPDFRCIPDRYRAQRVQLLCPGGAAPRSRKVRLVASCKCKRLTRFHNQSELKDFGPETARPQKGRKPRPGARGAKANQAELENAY

[12] = target: T4, Mouse Fc gamma RIIB (mouse, UniProt P08101 30-210, limits assumed); test: SPR (Biacore T200), pH 7.4, 25 degrees C; mouse Fc gamma RIIB captured by anti-Histidine antibody; antibody injected at 100 nM alone or as 1:1 immune complex with human sclerostin
T4 sequence (looked up): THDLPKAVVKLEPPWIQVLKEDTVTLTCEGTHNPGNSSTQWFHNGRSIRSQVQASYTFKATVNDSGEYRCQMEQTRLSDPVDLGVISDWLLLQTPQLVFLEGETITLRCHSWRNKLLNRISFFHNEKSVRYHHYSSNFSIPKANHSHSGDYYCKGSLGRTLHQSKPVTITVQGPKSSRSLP
Procedure: The binding of anti-sclerostin antibodies/sclerostin immune complex towards mouse Fc gamma RIIB at pH 7.4 were determined at 25 degrees C. using Biacore T200 instrument (GE Healthcare). All antibodies and mouse Fc gamma RIIB were prepared in ACES pH 7.4 containing 20 mM ACES, 250 mM NaCl, 1.2 mM CaCl₂, 0.05% Tween 20, 1 mg/ml BSA, 1 mg/ml carboxymethyl dextran (CMD), 0.005% NaN₃. Anti-Histidine antibody (GE Healthcare) was immobilized onto all flow cells of a CM4 sensor chip using amine coupling kit (GE Healthcare). Mouse Fc gamma RIIB was captured on flow cell 2 by anti-Histidine antibody with flow cell 1 as reference flow cell. Mouse Fc gamma RIIB capture levels were aimed at 400 resonance unit (RU). All antibodies were injected at 100 nM over all flow cells. Immune complexes were prepared by mixing 1:1 molar ratio of antibody and human sclerostin and incubated at room temperature for one hour. Sensor surface was regenerated each cycle with 10 mM Glycine-HCl, pH1.5.

[13] = target: T2, Recombinant human sclerostin; test: SPR (Biacore), dissociation at pH 5.8 of complex formed at pH 7.4
Procedure: The affinity of anti-sclerostin variants binding to human, cynomolgus monkey (cyno), rat, or mouse sclerostin at pH 7.4 and pH 5.8 were determined at 37 degrees C. using Biacore T200 instrument (GE Healthcare). Anti-human Fc (GE Healthcare) was immobilized onto all flow cells of a CM4 sensor chip using amine coupling kit (GE Healthcare). All antibodies and analytes were prepared in ACES pH7.4 or pH 5.8 buffer containing 20 mM ACES, 150 mM NaCl, 1.2 mM CaCl₂, 0.05% Tween 20, 0.005% NaN₃. Each antibody was captured onto the sensor surface by anti-human Fc. […] Sensor surface was regenerated each cycle with 3M MgCl₂.
The pH dependent interaction assessment was determined by a modified Biacore assay. Briefly, an additional dissociation phase at pH5.8 was integrated into the Biacore assay immediately after dissociation phase at pH7.4. This is to assess the pH-dependent dissociation between antibody and antigen from the complexes formed at pH7.4. The dissociation rate at pH5.8 buffer was determined by processing and fitting data using Scrubber 2.0 (BioLogic Software) curve fitting software.

[14] = target: T2, Recombinant human sclerostin; test: cell-based or functional assay

B1: mabA-hG2 (antibody, human IgG2, kappa, V domains shown)
VH: EVQLVQSGAEVKKPGASVKVSCKASGYTFTDYNMHWVRQAPGQGLEWMGEINPNSGGAGYNQKFKGRVTMTTDTSTSTAYMELRSLRSDDTAVYYCARLGYDDIYDDWYFDVWGQGTTVTVSS
VL: DIQMTQSPSSLSASVGDRVTITCRASQDISNYLNWYQQKPGKAPKLLIYYTSRLLSGVPSRFSGSGSGTDFTLTISSLQPEDFATYYCQQGDTLPYTFGGGTKVEIKR
IC50 (read off the curve); Wnt1-induced TCF/LEF luciferase reporter in HEK293T cells, % Inhibition of monkey SOST [1]: ~4 µg/mL

B2: mabB heavy chain combined with light chain variant abL081 (antibody, human IgG1, kappa, V domains shown)
VH: QVQLVQSGAEVKKPGASVKVSCKVSGFPIKDTFQHWVRQAPGKGLEWMGWSDPEIGDTEYASKFQGRVTMTEDTSTDTAYMELSSLRSEDTAVYYCATGDTTYKFDFWGQGTTVTVSS
VL: B1 VL with S30H, N31T, N34A, Y50W, T51A, R53T, L54R, L55W
notes: also called abL081 with the mabB heavy chain
binding result [2]: binds

B3: mabB heavy chain combined with light chain variant A-A-B (antibody, human IgG1, kappa, V domains shown)
VH: B2 VH
VL: B1 VL with G91Y, D92S, T93D, L94Y, Y96W
notes: also called A-A-B with the mabB heavy chain
binding result [3]: binds

B4: mabA heavy chain combined with light chain variant A-A-B (antibody, human IgG1, kappa, V domains shown)
VH: B1 VH
VL: B1 VL with G91Y, D92S, T93D, L94Y, Y96W
notes: also called A-A-B with the mabA heavy chain
binding result [3]: no binding

B5: mabB heavy chain combined with light chain variant abL083 (antibody, human IgG1, kappa, V domains shown)
VH: B2 VH
VL: B1 VL with S30H, N31T, N34A, Y50W, T51A, R53T, L54R
notes: also called abL083 with the mabB heavy chain
binding result [4]: binds

B6: mabB heavy chain combined with the mabA light chain (mabAL) (antibody, human IgG1, kappa, V domains shown)
VH: B2 VH
VL: B1 VL
notes: also called mabAL with the mabB heavy chain; Light chain A with the mabB heavy chain
binding result [5]: no binding

B7: mabA heavy chain combined with the mabB light chain (mabBL) (antibody, human IgG1, kappa, V domains shown)
VH: B1 VH
VL: DIQMTQSPSSLSASVGDRVTITCKASQDVHTAVAWYQQKPGKAPKLLIYWASTRWTGVPSRFSGSGSGTDFTLTISSLQPEDFATYYCQQYSDYPWTFGGGTKVEIKR
notes: also called mabBL with the mabA heavy chain; Light chain B with the mabA heavy chain
binding result [6]: no binding

B8: mabB heavy chain combined with light chain variant A-B-B (antibody, human IgG1, kappa, V domains shown)
VH: B2 VH
VL: B7 VL with K24R, V29I, H30S, T31N, A32Y, V33L, A34N
notes: also called A-B-B with the mabB heavy chain
binding result [7]: binds

B9: mabB heavy chain combined with light chain variant B-B-A (antibody, human IgG1, kappa, V domains shown)
VH: B2 VH
VL: B7 VL with Y91G, S92D, D93T, Y94L, W96Y
notes: also called B-B-A with the mabB heavy chain
binding result [8]: binds

B10: mabB heavy chain combined with light chain variant abL063 (antibody, human IgG1, kappa, V domains shown)
VH: B2 VH
VL: B1 VL with N31T, Y32A, N34A, Y50W, T51A, R53T, L55W
notes: also called abL063 with the mabB heavy chain
binding result [9]: binds

B11: mabB heavy chain combined with light chain variant B-A-B (antibody, human IgG1, kappa, V domains shown)
VH: B2 VH
VL: B7 VL with W50Y, A51T, T53R, R54L, W55L, T56S
notes: also called B-A-B with the mabB heavy chain
binding result [10]: binds

B12: mabB//mabA-BS01 (bispecific antibody, human IgG1, kappa)
heavy 1: QVQLVQSGAEVKKPGASVKVSCKVSGFPIKDTFQHWVRQAPGKGLEWMGWSDPEIGDTEYASKFQGRVTMTEDTSTDTAYMELSSLRSEDTAVYYCATGDTTYKFDFWGQGTTVTVSSASTKGPSVFPLAPSSRSTSESTAALGCLVKDYFPEPVTVSWNSGALTSGVHTFPAVLQSSGLYSLSSVVTVPSSSLGTKTYTCNVDHKPSNTKVDKRVEPKSCDKTHTCPPCPAPELLGGPSVFLFPPKPKDTLMISRTPEVTCVVVDVSQEDPEVQFNWYVDGVEVHNAKTKPREEQFNSTYRVVSVLTVLHQDWLNGKEYKCKVSNKGLPSSIEKTISKAKGQPREPQVYTLPPSREEMTKNQVSLTCLVKGFYPSDIAVEWESNGQPENNYKTTPPYLDSDGSFFLYSKLTVDKSRWQQGNVFSCSVMHEALHNHYTQESLSLSP
light 1: DIQMTQSPSSLSASVGDRVTITCKASQDVHTAVAWYQQKPGKAPKLLIYWASTRWTGVPSRFSGSGSGTDFTLTISSLQPEDFATYYCQQYSDYPWTFGGGTKVEIKRTVAAPSVFIFPPSDEQLKSGTASVVCLLNNFYPREAKVQWKVDNALQSGNSQESVTEQDSKDSTYSLSSTLTLSKADYEKHKVYACEVTHQGLSSPVTKSFNRGEC
heavy 2: EVQLVQSGAEVKKPGASVKVSCKASGYTFTDYNMHWVRQAPGQGLEWMGEINPNSGGAGYNQKFKGRVTMTTDTSTSTAYMELRSLRSDDTAVYYCARLGYDDIYDDWYFDVWGQGTTVTVSSASTKGPSVFPLAPSSRSTSESTAALGCLVKDYFPEPVTVSWNSGALTSGVHTFPAVLQSSGLYSLSSVVTVPSSSLGTKTYTCNVDHKPSNTKVDKRVEPKSCDKTHTCPPCPAPELLGGPSVFLFPPKPKDTLMISRTPEVTCVVVDVSQEDPEVQFNWYVDGVEVHNAKTKPREEQFNSTYRVVSVLTVLHQDWLNGKEYKCKVSNKGLPSSIEKTISKAKGQPREPQVYTLPPSRKEMTKNQVSLTCLVKGFYPSDIAVEWESNGQPENNYKTTPPYLDSDGSFFLYSKLTVDKSRWQQGNVFSCSVMHEALHNHYTQKSLSLSP
light 2: not shown
IC50 (read off the curve); Wnt1-induced TCF/LEF luciferase reporter in HEK293T cells, % Inhibition of mouse SOST [11]: ~7 µg/mL
binding result [12]: binds

B13: amH848/bsH638/abL152 (bispecific antibody)
heavy 1: not shown
heavy 2: not shown
VL: DIQMTQSPSSLSASVGDRVTITCRASEGIHDALAWYQQKPGKAPKLLIYWASTLESGVPSRFSGSGSGTDFTLTISSLQPEDFATYYCQQGDTLPYTFGGGTKVEIK
notes: Biparatopic, common light chain
koff [13]: 0.1 s⁻¹

B14: amH852/bsH638/abL152 (bispecific antibody)
heavy 1: not shown
heavy 2: not shown
VL: B13 VL
notes: as for B13
IC50 (read off the curve); Wnt1-induced TCF/LEF luciferase reporter in HEK293T cells, % Inhibition of human SOST [14]: ~10 µg/mL
koff [13]: 0.028 s⁻¹
